{"source": "paper PMC2602864", "binders": {"B1": {"name": "EcoR124I HsdR subunit, wild type (enzyme)", "chain": "MTHQTHTIAESNNFIVLDKYIKAEPTGDSYQSESDLERELIQDLRNQGYEFISVKSQSAMLANVREQLQNLNGVVFNDSEWRRFTEQYLDNPSDGILDKTRKIHIDYICDFIFDDERLENIYLIDKKNLMRNKVQIIQQFEQAGSHANRYDVTILVNGLPLVQIELKKRGVAIREAFNQIHRYSKESFNSENSLFKYLQLFVISNGTDTRYFANTTKRDKNSFDFTMNWAKSDNTLIKDLKDFTATCFQKHTLLNVLVNYSVFDSSQTLLVMRPYQIAATERILWKIKSSFTAKNWSKPESGGYIWHTTGSGKTLTSFKAARLATELDFIDKVFFVVDRKDLDYQTMKEYQRFSPDSVNGSENTAGLKRNLDKDDNKIIVTTIQKLNNLMKAESDLPVYNQQVVFIFDECHRSQFGEAQKNLKKKFKRYYQFGFTGTPIFPENALGSETTASVFGRELHSYVITDAIRDEKVLKFKVDYNDVRPQFKSLETETDEKKLSAAENQQAFLHPMRIQEITQYILNNFRQKTHRTFPGSKGFNAMLAVSSVDAAKAYYATFKRLQEEAANKSATYKPLRIATIFSFAANEEQNAIGEISDETFDTSAMDSSAKEFLDAAIREYNSHFKTNFSTDSNGFQNYYRDLAQRVKNQDIDLLIVVGMFLTGFDAPTLNTLFVDKNLRYHGLMQAFSRTNRIYDATKTFGNIVTFRDLERSTIDAITLFGDKNTKNVVLEKSYTEYMEGFTDAATGEAKRGFMTVVSELEQRFPDPTSIESEKEKKDFVKLFGEYLRAENILQNYDEFATLKALQQIDLSDPVAVEKFKAEHYVDDEKFAELQTIRLPADRKIQDYRSAYNDIRDWQRREKEAEKKEKSTTDWDDVVFEVDLLKSQEINLDYILGLIFEHNRQNKGKGEMIEEVKRLIRSSLGNRAKEGLVVDFIQQTNLDDLPDKASIIDAFFTFAQREQQREAEALIKEENLNEDAAKRYIRTSLKREYATENGTELNETLPKLSPLNPQYKTKKQAVFQKIVSFIEKFKGVGGKI"}}, "target": "EcoR124I core methyltransferase (HsdM2HsdS1) (not stated (hsd genes of the IncFIV plasmid R124, carried in E. coli)) (UniProt P10484)", "sequence (P10484 whole entry, chain 1 of 2)": "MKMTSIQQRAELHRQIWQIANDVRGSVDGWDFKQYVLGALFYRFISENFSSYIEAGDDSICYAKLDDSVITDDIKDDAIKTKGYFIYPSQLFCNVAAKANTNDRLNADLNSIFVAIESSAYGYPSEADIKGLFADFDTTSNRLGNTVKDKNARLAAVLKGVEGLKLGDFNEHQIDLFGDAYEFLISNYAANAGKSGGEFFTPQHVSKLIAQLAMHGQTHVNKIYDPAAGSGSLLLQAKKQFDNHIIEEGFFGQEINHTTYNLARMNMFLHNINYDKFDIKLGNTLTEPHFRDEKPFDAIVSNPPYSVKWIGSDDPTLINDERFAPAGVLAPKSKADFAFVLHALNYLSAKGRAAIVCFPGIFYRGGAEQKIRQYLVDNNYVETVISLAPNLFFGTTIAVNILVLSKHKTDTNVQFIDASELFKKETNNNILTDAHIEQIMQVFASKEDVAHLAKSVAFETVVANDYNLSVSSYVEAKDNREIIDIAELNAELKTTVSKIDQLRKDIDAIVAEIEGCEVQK", "sequence (P10485 whole entry, chain 2 of 2, further chain)": "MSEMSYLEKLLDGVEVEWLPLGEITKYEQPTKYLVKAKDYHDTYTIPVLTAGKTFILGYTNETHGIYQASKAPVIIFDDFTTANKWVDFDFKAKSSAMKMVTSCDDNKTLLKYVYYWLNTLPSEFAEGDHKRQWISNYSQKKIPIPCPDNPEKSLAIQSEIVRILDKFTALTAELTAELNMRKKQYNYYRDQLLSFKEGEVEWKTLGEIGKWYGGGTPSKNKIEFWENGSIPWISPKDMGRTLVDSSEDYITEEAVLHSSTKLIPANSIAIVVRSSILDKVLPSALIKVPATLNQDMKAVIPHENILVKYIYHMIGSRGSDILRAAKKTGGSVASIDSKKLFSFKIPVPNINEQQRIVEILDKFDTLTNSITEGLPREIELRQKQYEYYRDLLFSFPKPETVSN"}
{"binder": "B1", "values": [{"measurement": "mean lifetime of a DNA translocation event, R1 complex (one HsdR on the MTase), magnetic tweezers", "value": 0.95, "unit": "s"}]}
